The record followed here is paper PMC7680125.

This data set deals with Isw1 alone (Saccharomyces cerevisiae). Nature of the data set: EMSA. The following applies: 35 mM Na-HEPES pH 7.8, 5 mM MgCl2, 0.1 mM EGTA, 0.02 M EDTA (so in the source), 70 mM NaCl, 0.1 mg/ml BSA, 5-8% glycerol, 40 uM 2-mercaptoethanol, 30 C, 30 min ….

What is called Kd is the constant that tells how readily two partners part at equilibrium. A high value points to weaker binding. For the substance 0N70 mononucleosome, the Kd stood at 21.9 nM.
